According to PMC12394075, “Domain coupling in activation of a family C GPCR” (Nature Chemical Biology, 2024):

Biological target: the molecule itself
Experiment: SEC; Superose 6 10/300 increase GL equilibrated in detergent-free buffer, after elution in 0.005% MNG/GDN/CHS

B1: full-length mGluR2 (FLAG-tagged, purified in detergent micelles) (receptor, rat, UniProt P31421 19-872, looked up)
chain: EGPAKKVLTLEGDLVLGGLFPVHQKGGPAEECGPVNEHRGIQRLEAMLFALDRINRDPHLLPGVRLGAHILDSCSKDTHALEQALDFVRASLSRGADGSRHICPDGSYATHSDAPTAVTGVIGGSYSDVSIQVANLLRLFQIPQISYASTSAKLSDKSRYDYFARTVPPDFFQAKAMAEILRFFNWTYVSTVASEGDYGETGIEAFELEARARNICVATSEKVGRAMSRAAFEGVVRALLQKPSARVAVLFTRSEDARELLAATQRLNASFTWVASDGWGALESVVAGSERAAEGAITIELASYPISDFASYFQSLDPWNNSRNPWFREFWEERFHCSFRQRDCAAHSLRAVPFEQESKIMFVVNAVYAMAHALHNMHRALCPNTTHLCDAMRPVNGRRLYKDFVLNVKFDAPFRPADTDDEVRFDRFGDGIGRYNIFTYLRAGSGRYRYQKVGYWAEGLTLDTSFIPWASPSAGPLPASRCSEPCLQNEVKSVQPGEVCCWLCIPCQPYEYRLDEFTCADCGLGYWPNASLTGCFELPQEYIRWGDAWAVGPVTIACLGALATLFVLGVFVRHNATPVVKASGRELCYILLGGVFLCYCMTFVFIAKPSTAVCTLRRLGLGTAFSVCYSALLTKTNRIARIFGGAREGAQRPRFISPASQVAICLALISGQLLIVAAWLVVEAPGTGKETAPERREVVTLRCNHRDASMLGSLAYNVLLIALCTLYAFKTRKCPENFNEAKFIGFTMYTTCIIWLAFLPIFYVTSSDYRVQTTTMCVSVSLSGSVVLGCLFAPKLHIILFQPQKNVVSHRAPTSRFGSAAPRASANLGQGSGSQFVPTVCNGREVVDSTTSSL
notes: also called full-length mGluR2 construct; full-length receptor
B1: binds.
